Source: patent US20100291088A1

Key:
Experiment in all cases: cell-based or functional assay
NEM-huIL-18 (human) = NEM-huIL-18 (human) (UniProt Q14116)
(4C/A)-huIL-18 (human) = (4C/A)-huIL-18 (human) (UniProt Q14116)
[1] = target: natural human IL-18 (human) (UniProt Q14116)

Row | Binder | KG-1 Assays (IC50, M) (NEM-huIL-18 (human)) [M] | KG-1 neutralization potency in vitro (IC50, nM) ((4C/A)-huIL-18 (human)) [nM] | WBA neutralization potency in vitro (IC50, nM) [1] [nM]
1 | 268 (antibody, V domains shown) VH: ZVQLVESGGGVVQPGRSLRLSCAASGFTFRNYGLHWVRQAPGKGLEWVAVIWYDGSNKYYADSVKGRFTISRDNSKNTLYLQMNSLRAEDTAVYYCARESYYYYGMDVWGQGTTVTVSS VL: EIVMTQSPATLSVSPGERATLSCRASQSFNSNLVWYQQKPGQAPRLLIYGASTRATGIPARFSGSGSGTEFTLTISSLQSEDFAVYYCQQYNNWTWTFGQGTKVEIKR | 7e-09 | – | –
2 | Murine anti-human IL-18 mAb (125-2H) (antibody, from another filing, V domains shown) VH: EIQLQQSGPELVKPGASVKVSCKASGYSFTDYFIYWVKQSHGKSLEWIGDIDPYNGDTSYNQKFRDKATLTVDQSSTTAFMHLNSLTSEDSAVYFCARGLRFWGQGTLVTVSA VL: DIQMTQSPSSLSASLGERVSLTCRASQDIGSKLYWLQQEPDGTFKRLIYATSSLDSGVPKRFSGSRSGSDYSLTISSLESEDFVDYYCLQYASSPYTFGGGTKLAIKR | – | 0.2 | 3
